The target of test [1] is T1, GDF15 (ligand used in the GFRAL/RET cell assays) (UniProt Q99988 197-308, limits assumed).
T1 sequence (looked up): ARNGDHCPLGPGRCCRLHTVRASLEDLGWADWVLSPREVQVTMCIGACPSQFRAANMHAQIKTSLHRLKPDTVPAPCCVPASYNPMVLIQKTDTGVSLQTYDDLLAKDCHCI
Nature of the test: cell-based or functional assay.

The target in the next test is T2, GDNF (UniProt P39905 78-211).
T2 sequence (looked up): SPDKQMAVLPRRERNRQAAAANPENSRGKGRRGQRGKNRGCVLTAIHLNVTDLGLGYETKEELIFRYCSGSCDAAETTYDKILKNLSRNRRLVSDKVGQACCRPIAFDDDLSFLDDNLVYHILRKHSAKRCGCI
Nature of the test: BLI Octet; IgG on sensor. On the technique in general: BLI is a label-free optical method that tracks binding on a fibre tip over time.

The target of a further test is GDF8 (UniProt O14793 267-375). Nature of the test: BLI Octet; IgG on sensor.
In a further test the target is T3, GDF10 (UniProt P55107 369-478).
T3 sequence (looked up): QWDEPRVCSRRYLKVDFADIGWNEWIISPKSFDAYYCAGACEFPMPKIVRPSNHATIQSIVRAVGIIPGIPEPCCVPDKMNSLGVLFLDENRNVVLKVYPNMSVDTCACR
Kind of test: BLI Octet; IgG on sensor.

In the next test the target is T4, GDF11 (UniProt O95390 299-407).
T4 construct: Also used as ligand in the Activin 2B receptor/SMAD reporter assay
Nature of the test: BLI Octet; IgG on sensor.

In the next test the target is T5, Human Activin A Fc (human, UniProt P08476 311-426).
T5 construct: not shown: Fc part
T5 sequence (looked up): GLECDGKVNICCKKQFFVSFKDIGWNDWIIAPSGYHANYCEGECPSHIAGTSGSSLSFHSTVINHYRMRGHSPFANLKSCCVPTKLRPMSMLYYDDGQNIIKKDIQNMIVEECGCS
Nature of the test: BLI Octet; IgG on sensor.

The next test addresses T6, Human Activin B (human, UniProt P09529 293-407).
T6 sequence (looked up): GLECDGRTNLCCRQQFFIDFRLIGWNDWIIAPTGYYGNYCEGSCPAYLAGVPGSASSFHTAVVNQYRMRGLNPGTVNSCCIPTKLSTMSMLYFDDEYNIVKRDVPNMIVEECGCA
Nature of the test: BLI Octet; IgG on sensor.

The next test has as its target T7, Human BMP9 (human, UniProt Q9UK05 320-429).
T7 sequence (looked up): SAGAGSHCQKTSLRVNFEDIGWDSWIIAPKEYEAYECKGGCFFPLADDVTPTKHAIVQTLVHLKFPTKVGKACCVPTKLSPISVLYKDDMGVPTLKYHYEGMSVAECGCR
Kind of test: BLI Octet; IgG on sensor.

Another test addresses T8, Human BMP10 (human, UniProt O95393 317-424).
T8 sequence (looked up): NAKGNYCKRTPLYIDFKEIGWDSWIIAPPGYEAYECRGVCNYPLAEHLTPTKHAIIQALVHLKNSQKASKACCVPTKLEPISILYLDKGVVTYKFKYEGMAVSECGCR
Kind of test: BLI Octet; IgG on sensor.

For a further test, the target named is T9, Human GDF15 Fc (human, UniProt Q99988 195-308, limits assumed, biotinylated (EZ-Link Sulfo-NHS-Biotinylation Kit) in the SPR assay).
T9 construct: also called human GDF15-Fc fusion; biotinylated Human GDF15 Fc; not shown: Fc part
T9 sequence: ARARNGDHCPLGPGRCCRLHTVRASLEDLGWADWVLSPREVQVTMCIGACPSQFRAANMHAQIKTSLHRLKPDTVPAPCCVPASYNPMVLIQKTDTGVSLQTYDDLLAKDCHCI
Nature of the test: BLI Octet; IgG on sensor, 100 nM antigen (avid). On the procedure: Briefly, ForteBio affinity measurements were performed by loading IgGs on-line onto AHC sensors. Sensors were equilibrated off-line in assay buffer for 30 min and then monitored on-line for 60 seconds for baseline establishment. Sensors with loaded IgGs were exposed to 100 nM antigen for 3 minutes, and afterwards were transferred to assay buffer for 3 min for off-rate measurement. All kinetics were analyzed using the 1:1 binding model.

T4 sequence (O95390 299-407 limits assumed): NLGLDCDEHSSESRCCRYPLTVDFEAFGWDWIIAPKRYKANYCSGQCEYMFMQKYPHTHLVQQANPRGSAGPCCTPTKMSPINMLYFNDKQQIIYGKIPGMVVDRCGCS

B1: GDF15 antibody agent Clone E, IgG (antibody, V domains shown)
VH: QVQLVQSGAEVKKPGASVKVSCKASGYTFTSYGINWVRQAPGQGLEWMGWITAYSGDTNYAQKLQGRVTMTTDTSTSTAYMELRSLRSDDTAVYYCARGPGQYADVDVWGQGTMVTVSS
VL: DIQMTQSPSSVSASVGDRVTITCRASQGISSWLAWYQQKPGKAPKLLIYAASSLQSGVPSRFSGSGSGTDFTLTISSLQPEDFATYYCQQANSFPITFGGGTKVEIKR
For the molecule B1, in test [1], the “GDF15-GFRAL RET pERK IC50 (pM)” value is 35 pM. In addition, in test [1], the “GDF15-GFRAL-RET Luciferase IC50 (pM)” value came out at 190 pM. The binding result in the test with GDNF, with GDF8, with GDF10, in the test with GDF11, with Human Activin A Fc and with Human Activin B was “no binding (tested: 100 nM)” throughout. Also, the binding result with Human BMP9 and with Human BMP10 was “no binding (tested: 100 nM)” each time. The same molecule had a Kd in the test with Human GDF15 Fc of 0.278 nM.

B2: GDF15 antibody agent Clone O, IgG (antibody, V domains shown)
VH: QVQLVQSGAEVKKPGATVKVSCKASGYTFDSLGMSWVRQAPGQGLEWMGYISTYSGDTVYAQKLQGRVTMTTDTSTSTAYMELRSLRSDDTAVYYCARESGQQVSALDPWGQGTLVTVSS
VL: DIQMTQSPSSVSASVGDRVTITCRASQGISRWLAWYQQKPGKAPKLLIYAASSLQSGVPSRFSGSGSGTDFTLTISSLQPEDFATYYCQQGASFPLTFGGGTKVEIKR
Take B2: in test [1], the “GDF15-GFRAL-RET Luciferase IC50 (pM)” value came to 150 pM. Moreover, the binding result in the test with GDNF, with GDF8, with GDF11, with Human Activin A Fc, with Human Activin B and in the test with Human BMP9 was “no binding (tested: 100 nM)” in each case. Further, in the test with Human BMP10, the binding result is “no binding (tested: 100 nM)”. In the test with Human GDF15 Fc, this molecule showed a Kd of 0.279 nM.

B3: GDF15 antibody agent Clone J, IgG (antibody, V domains shown)
VH: QVQLVQSGAEVKKPGASVKVSCKASGYTFTSYGINWVRQAPGQGLEWMGWIDAYSGSTNYAQKLQGRVTMTTDTSTSTAYMELRSLRSDDTAVYYCARGPGQYADVDVWGQGTMVTVSS
VL: DIQMTQSPSSVSASVGDRVTITCRASQGISSWLAWYQQKPGKAPKLLIYAASSLQSGVPSRFSGSGSGTDFTLTISSLQPEDFATYYCQQANSFPITFGGGTKVEIKR
For B3, the “GDF15-GFRAL RET pERK IC50 (pM)” value in test [1] worked out at 30.3 pM. Besides, the “GDF15-GFRAL-RET Luciferase IC50 (pM)” value in [1] was found to be 110 pM. Moreover, the binding result in the test with GDF8, with GDF10, with GDF11, with Human Activin A Fc, with Human Activin B and in the test with Human BMP9 was “no binding (tested: 100 nM)” each time. In the test with Human BMP10, the binding result is “no binding (tested: 100 nM)”. Besides, the dissociation constant Kd with Human GDF15 Fc is 0.276 nM.

B4: GDF15 antibody agent Clone P, IgG (antibody, V domains shown)
VH: QVQLVQSGAEVKKPGATVKVSCKASGYTFDSYGIHWVRQAPGQGLEWMGWITAYSGDTVYAQKLQGRVTMTTDTSTSTAYMELRSLRSDDTAVYYCARESGQTSSALGPWGQGTLVTVSS
VL: DIQMTQSPSSVSASVGDRVTITCRASQGISRWLAWYQQKPGKAPKLLIYAASSLQSGVPSRFSGSGSGTDFTLTISSLQPEDFATYYCQQGASFPLTFGGGTKVEIKR
For the molecule B4, the “GDF15-GFRAL RET pERK IC50 (pM)” value in [1] amounted to 35.6 pM. For the same molecule, the binding result with GDF8, in the test with GDF10, with GDF11, in the test with Human Activin A Fc, with Human Activin B and in the test with Human BMP9 was “no binding (tested: 100 nM)” each time. In the test with Human BMP10, the binding result was “no binding (tested: 100 nM)”. This molecule also showed a Kd in the test with Human GDF15 Fc of 0.274 nM.

B5: GDF15 antibody agent Clone T, IgG (antibody, V domains shown)
VH: QVQLVQSGAEVKKPGASVKVSCKASGYTFTSYGINWVRQAPGQGLEWMGWITAYSGDTNYAQKLQGRVTMTTDTSTSTAYMELRSLRSDDTAVYYCARGPGQYADVDVWGQGTMVTVSS
VL: DIQMTQSPSSVSASVGDRVTITCRASQGISSWLAWYQQKPGKAPKLLIYAASSLQSGVPSRFSGSGSGTDFTLTISSLQPEDFATYYCQQASQFPITFGGGTKVEIKR
As for B5, the binding result in the test with GDNF, with GDF8, with GDF10, with GDF11, in the test with Human Activin A Fc and with Human Activin B was “no binding (tested: 100 nM)” in each case. Also, the binding result in the test with Human BMP9 and with Human BMP10 was “no binding (tested: 100 nM)” each time.

B6: GDF15 antibody agent Clone S, IgG (antibody, V domains shown)
VH: QVQLVQSGAEVKKPGASVKVSCKASGYTFTSYGINWVRQAPGQGLEWMGWITAYSGDTNYAQKLQGRVTMTTDTSTSTAYMELRSLRSDDTAVYYCARGPGQYADVDVWGQGTMVTVSS
VL: DIQLTQSPSSVSASVGDRVTITCRASQGISPWLAWYQQKPGKAPKLLIYAASSLQSGVPSRFSGSGSGTDFTLTISSLQPEDFATYYCQQANSFPITFGGGTKVEIKR
As for B6, the binding result with GDNF, in the test with GDF8, in the test with GDF10, in the test with GDF11, with Human Activin A Fc and with Human Activin B was “no binding (tested: 100 nM)” throughout. For the same molecule, the binding result with Human BMP9 and with Human BMP10 was “no binding (tested: 100 nM)” in each case.

B7: GDF15 antibody agent Clone H, IgG (antibody, V domains shown)
VH: QVQLVQSGAEVKKPGSSVKVSCKASGGTFSSYYISWVRQAPGQGLEWMGGIAPISGTASYAQKFQGRVTITADESTSTAYMELSSLRSEDTAVYYCARGLAYDGYFDLWGRGTLVTVSS
VL: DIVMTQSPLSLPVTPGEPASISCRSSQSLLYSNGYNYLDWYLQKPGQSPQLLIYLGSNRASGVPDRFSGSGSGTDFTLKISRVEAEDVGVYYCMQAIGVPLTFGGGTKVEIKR
As to B7, the “GDF15-GFRAL RET pERK IC50 (pM)” value in test [1] turned out to be 254 pM. The “GDF15-GFRAL-RET Luciferase IC50 (pM)” value in test [1] was 200 pM. Moreover, the binding result in the test with GDNF, in the test with GDF8, with GDF10, with GDF11, with Human Activin A Fc and with Human Activin B was “no binding (tested: 100 nM)” each time. Further, the binding result with Human BMP9 and in the test with Human BMP10 was “no binding (tested: 100 nM)” in each case. The molecule further yielded a Kd with Human GDF15 Fc of 0.235 nM.

The term Kd denotes the constant that tells how readily two partners part at equilibrium. A higher Kd goes with weaker binding.
